# Measured values published in publication PMC10348674 (Science Advances, 2023).
# Positions count from the first letter of the chain named. Numbers in names are those of the source.
# B1: FLAG-tagged KCTD5 full-length (FL) (natural protein)
# chain: MAENHCELLPPAPSGLGAGLGGGLCRRCSAGMGALAQRPGGVSKWVRLNVGGTYFLTTRQTLCRDPKSFLYRLCQADPDLDSDKDETGAYLIDRDPTYFGPVLNYLRHGKLVINKDLAEEGVLEEAEFYNITSLIKLVKDKIRERDSRISQMPVKHVYRVLQCQEEELTQMVSTMSDGWKFEQLVSIGSSYNYGNEDQAEFLCVVSKELHNTPYGTTSEPSEKAKILQERGSRM
# B2: FLAG-tagged KCTD5 R159A (natural protein)
# chain: B1 chain with R159A
# B3: FLAG-tagged KCTD5 E167A (natural protein)
# chain: B1 chain with E167A
# B4: FLAG-tagged KCTD5 W179A (natural protein)
# chain: B1 chain with W179A
# B5: FLAG-tagged KCTD5 R72A (natural protein)
# chain: B1 chain with R72A
# B6: FLAG-tagged KCTD5 D93A (natural protein)
# chain: B1 chain with D93A
# B7: FLAG-tagged KCTD7 WT (E. coli, for pull-down) (natural protein)
# chain: MVVVTGREPDSRHSDGAMSSSEAEDDFLEPATPTATQAGHGLPLLPQEFPEVVPLNIGGAHFTTRLSTLRRYEDTMLAAMFSGRHYIPTDSEGRYFIDRDGTHFGDVLNFLRSGDLPPREHVRAVHKEAQYYAIGPLLEQLENMQPLKGEKVRQAFLGLMPYYKDHLERIVEIARLRAVQRKARFAKLKVCVFKEEMPITPYECPLLNSLRFERSESDGQLFEHHCEVDVSFGPWEAVADVYDLLHCLVTDLSAQGLTVDHQCIGVCDKHLVNHYYCKRPIYEFKITWW
# B8: FLAG-tagged KCTD7 R65A (natural protein)
# chain: B7 chain with R65A
# B9: FLAG-tagged KCTD7 S67A (natural protein)
# chain: B7 chain with S67A
# B10: KCTD7 (Sf9, for the cryo-EM complex) (natural protein)
# chain: B7 chain
# Target: T1, Cul3NΔ22 (23-388, I342R, and L346D) (UniProt Q13618 23-388, I342R | L346D)
# Test: pull-down
# T1 sequence (Q13618 23-388 I342R/L346D): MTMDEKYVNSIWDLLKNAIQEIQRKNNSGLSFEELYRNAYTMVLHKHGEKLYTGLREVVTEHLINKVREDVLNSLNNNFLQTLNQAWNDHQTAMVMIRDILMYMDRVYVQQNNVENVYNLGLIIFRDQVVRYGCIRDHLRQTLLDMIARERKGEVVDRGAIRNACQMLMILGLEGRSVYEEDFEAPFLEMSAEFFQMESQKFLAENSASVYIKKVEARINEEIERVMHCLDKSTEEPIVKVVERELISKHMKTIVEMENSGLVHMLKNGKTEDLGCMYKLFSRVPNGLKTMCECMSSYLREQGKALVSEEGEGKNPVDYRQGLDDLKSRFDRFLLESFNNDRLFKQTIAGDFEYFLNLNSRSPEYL
row,Binder,binding result
1,B1,binds
2,B2,binds
3,B3,binds
4,B4,binds
5,B5,binds
6,B6,binds
7,B7,binds
8,B8,binds
9,B9,binds

# Target: T1, Cul3NΔ22 (23-388, I342R, and L346D)
# Test: cryo-EM structure
row,Binder,binding result
1,B10,binds

# Target: the molecule itself
# Test: cryo-EM structure
row,Binder,stoichiometry N
1,B10,5
